Results as given in paper PMC4817975 (PLoS ONE, 2016).
Where two headings read alike, the source gives them in different places.

Tests used:
[1] = target: T1, Human kappa opioid receptor (KOR) reconstituted in Nanodiscs (Homo sapiens, UniProt P41145); details: SPA saturation binding, one-site model
T1 construct: made in house; host or cells: Pichia pastoris (KOR)
Protocol: In parallel non-specific binding was measured in the presence of 50 μM naloxone. […] Therefore, saturation and inhibition binding assays were performed with reduced SPA beads/well; 0.25 mg/well of streptavidin-coated SPA YSI beads. […] Ki was measured from the IC50 value.

KOR = target: KOR; design: method as in PMID 22437504, PMID 15956349; details: literature value; cited from earlier work
[2] = target: T2, Human kappa opioid receptor (KOR) (Homo sapiens, UniProt P41145); test: Radioligand filter binding assay (saturation), KOR in P. pastoris membranes; details: one-site model, read-out: KD, P.Pastoris membrane
T2 construct: made in house; host or cells: Pichia pastoris
Protocol: Specific ligand binding to KOR in P. pastoris membranes was measured by radioligand filter binding assay. Isolated P. pastoris membranes were diluted in binding buffer (50 mM Tris-HCl pH 7.4, 0.5 M NaCl, 1mg/ml BSA) and mixed in triplicates with radioligand [^3H]-diprenorpine (DPN, 42.3 Ci/mmol, Perkin Elmer) in concentrations varying from 0.08 to 10 nM in a 96 well plate (MultiScreen HTS-FC 1.2/0.65 μm glass fiber filter), which was pre-wetted in washing buffer (50 mM Tris-HCl buffer, pH 7.4). Non-specific binding was measured in parallel by including 50 μM naloxone. For each binding experiment, membranes corresponding to 3–5 μg/well were used keeping the ratio of bound radioligand <10% of the total added radioligand. The assay mixture was incubated for 2 h at room temperature. To separate bound from free ligands, the plate was rapidly filtrated and washed four times with 100 μl ice-cold washing buffer. Scintillation liquid (Ultima Gold XR, Perkin Elmer) was added to the wells and the assay was counted by a liquid scintillation counter (Wallac Microbeta TriLux 1450). Specific binding was calculated and KD was measured from saturation curves fitted to a one-site binding model using Igor Pro 6.1.

[3] = target: T2, Human kappa opioid receptor (KOR); test: Time-resolved SPA stability assay of high-affinity [3H]-DPN binding; details: for τ1, exponential time constant: exponential decay fit; for N1, initial active receptor population: exponential decay fit (single for DDM, double for Nanodiscs)
Protocol: All procedures were performed on ice or at 4°C until assay counting was initiated at room temperature (23°C). Time-resolved stability assay with detergent-extracted MPs was carried out directly after solubilization in binding buffer I (20 mM Tris-HCl, pH 7.4, 500 mM NaCl, 5% glycerol, 1 mM PMSF, 0.1 mM TCEP, 0.4% BSA). Solubilized proteins were diluted in the assay resulting in a final concentration of 0.1% DDM in the assay buffer. Stability assays performed with KOR reconstituted in Nanodiscs were done in binding buffer II (20 mM Tris-HCl pH 7.4, 100 mM NaCl pH 7.4, 0.4% BSA). KOR/Nanodisc samples were added at quantities corresponding to approximately 30 fmol/well. Samples were mixed with 0.5 mg/well yttrium silicate (YSi) streptavidin coated SPA beads (Perkin Elmer) in binding buffer and a final concentrations of 10 nM [^3H]-DPN (42.3 Ci/mmol, Perkin Elmer) in a total volume of 200 μl. In parallel, the non-specific binding was measured including 50 μM naloxone in the assay. All measurements were performed in triplicates in a white-wall clear-bottom 96-well plate (Wallac). The assay was gently shaken on a vibrating platform at 4°C for 1.5 hours to equilibrate ligand binding and immobilization of receptors on the SPA beads. After incubation the assay was counted with a liquid scintillation counter (Wallac Microbeta TriLux 1450, SPA cpm mode) repeatedly with 17 min between measurements at room temperature. As a control, the same assay conditions as described above were performed at RT and bound and free radioligands were separated at specific time points on Sephadex G-50 gravity-flow columns (GE Healthcare) equilibrated in binding buffer. After applying 50 μl of samples, columns were centrifuged for 2 min at 1000 x g. Separated samples were mixed with scintillation liquid and incubated for 1 hour at RT, before counting on a liquid scintillation counter. As data analysis, specific binding was normalized to the initial binding at time zero, corresponding to initiation of assay counting at RT. The half-life of high-affinity ligand binding was calculated from fitting to single or double exponential decay functions in Igor Pro 6.1.

[4] = 10 nM [3H]-DPN, 23°C, double exponential fit

T2 sequence (P41145 whole entry): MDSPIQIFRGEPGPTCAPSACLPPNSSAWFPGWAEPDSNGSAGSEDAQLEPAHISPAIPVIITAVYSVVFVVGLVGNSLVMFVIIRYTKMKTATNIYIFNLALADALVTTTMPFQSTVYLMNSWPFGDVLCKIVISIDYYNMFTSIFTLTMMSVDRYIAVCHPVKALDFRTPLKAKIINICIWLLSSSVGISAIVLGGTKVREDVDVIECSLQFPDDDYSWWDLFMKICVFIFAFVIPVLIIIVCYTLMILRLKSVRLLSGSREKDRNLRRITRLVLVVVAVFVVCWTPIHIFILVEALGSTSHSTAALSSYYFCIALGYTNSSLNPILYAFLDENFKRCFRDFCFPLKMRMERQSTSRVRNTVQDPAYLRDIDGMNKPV
T1 sequence (P41145 whole entry): as above

Substance | Kd [1] [pM] | Kd ([1]; listed as [^3H]-DPN) [pM] | Kd (KOR) [pM] | Kd ([2]; listed as [^3H]-DPN) [pM] | Kd [2] [pM] | τ1, exponential time constant ([3]; 10 nM [3H]-DPN, 23°C) [h] | N1, initial active receptor population ([3]; 10 nM [3H]-DPN, 23°C) [%] | time to complete loss of ligand binding activity ([3]; room temperature (23°C), 10 nM [3H]-DPN) [min] | N2, initial active receptor population (slow component) [3, 4] [%] | τ2, exponential time constant [3, 4] [h] | N2, initial active receptor population (slow component) ([3]; 10 nM [3H]-DPN, 23°C, double exponential fit, listed as KOR reconstituted in Nanodiscs) [%] | ligand binding relative to the initial activity after 100 minutes ([3]; after counting for 100 minutes at room temperature, n = 5) [%] | stability improvement (Taverage in Nanodiscs vs half-life in DDM micelles) ([3]; from fitted curves)
diprenorpine [[3H]-DPN] | 800 ± 200 | 840 ± 150 | 800 | 940 ± 140 | 900 ± 100 | – | – | – | – | – | – | – | –
KOR in DDM micelles: human kappa opioid receptor solubilized in DDM/CHS, 0.1%/0.02% in the assay | – | – | – | – | – | 0.4 ± 0.01 | 97.4 ± 1.5 | ≤ 100 | – | – | – | – | –
KOR in Nanodiscs: human kappa opioid receptor reconstituted in MSP1E3D1 Nanodiscs with POPC:POPG 3:2 | – | – | – | – | – | 1.2 ± 0.1 | 29.4 ± 0.8 | – | 68.9 ± 0.7 | 36.8 ± 1.6 | 68.9 | 73.5 ± 2.5 | approximately 70 fold
